Test results taken from article PMC3724861.

Molecular target: T1, Caup homeodomain (Drosophila melanogaster) (UniProt P54269)
T1 sequence: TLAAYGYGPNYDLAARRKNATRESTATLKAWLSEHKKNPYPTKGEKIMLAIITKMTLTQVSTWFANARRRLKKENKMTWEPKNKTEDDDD
Conditions: PBM

Sequence	binding signal (minimum E-score of the two 8-mers)
ATACATGTA (double strand) [9-mer ATACATGTA]	0.469
ATGTACATG (double strand) [9-mer ATGTACATG]	0.469
AACATGTAC (double strand) [9-mer AACATGTAC]	0.48
GACATGTAA (double strand) [9-mer GACATGTAA]	0.468
AACATGTAG (double strand) [9-mer AACATGTAG]	0.476
AACATGTAA (double strand) [9-mer AACATGTAA]	0.468
GTACATGTA (double strand) [9-mer GTACATGTA]	0.48
TACATGTAA (double strand) [9-mer TACATGTAA]	0.468
AACATGTAT (double strand) [9-mer AACATGTAT]	0.469
ATACATGTC (double strand) [9-mer ATACATGTC]	0.469
CTACATGTC (double strand) [9-mer CTACATGTC]	0.476
GACATGTAC (double strand) [9-mer GACATGTAC]	0.477
ACATGTACA (double strand) [9-mer ACATGTACA]	0.469
TACATGTCA (double strand) [9-mer TACATGTCA]	0.461
CTACATGTA (double strand) [9-mer CTACATGTA]	0.476
